Patent US20250312467A1

Biological target: Her2 (UniProt P04626)
Assay: cell-based or functional assay

Substance: antibody-payload conjugate (ADC, trastuzumab-DM1 conjugate)
- IC50, in vitro cytotoxicity on BT474 cells: 0.0296 µg/mL
- IC50, in vitro cytotoxicity on NCI-N87 cells: 0.0821 µg/mL
